No end group written: not given here.
Legend:
[1] = biological target: T1, HBD wt peptide (hepcidin binding domain of ferroportin with two arginines at each end); assay: competition with sub saturating ^125I-hepcidin (0.6 ug/ml) for bead-immobilized HBD (I-HBD), 18 h at 37 C, gamma counting (FIG. 2B)
T1 construct: Synthetic peptide; also called I-HBD (when immobilized on agarose beads or 96-well plates); HBD-beads
T1 peptide: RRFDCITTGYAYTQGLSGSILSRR
Description: FIGS. 2A-C illustrates that the binding of ¹²⁵I-hepcidin to HBD is specific and temperature dependent. In FIG. 2A peptides (HBD, scrambled-HBD or mutant (C326Y HBD) were conjugated to beads and ¹²⁵I-hepcidin was added to the bead-immobilized peptides (I-HBD) for 18 hours at 37° C. (black bars) or 4° C. (grey bars). The beads were washed and the amount of ¹²⁵I-hepcidin bound to the I-HBD was determined. In FIG. 2B a sub saturating concentration of ¹²⁵I-hepcidin (0.6 μg/ml) was incubated with I-HBD for 18 hours at 37° C. in the presence or absence of known concentrations of either hepcidin 25 (Hep 25-open circles) or hepcidin 25 synthesized with a tyrosine substitution at position M21 (Y-Hep 25) and the amount of radioactivity bound to the I-HBD determined. In FIG. 2C sub saturating levels of ¹²⁵I-hepcidin were incubated with I-HBD at different temperatures.
HBD peptides were immobilized by covalently attaching them to agarose beads. Immobilization was performed using AminoLink Plus Immobilization Kit (Pierce) following the manufacturer's instructions. 1.0 mg of HBD peptide was used per 2.0 ml of AminoLink beads. To measure hepcidin concentrations in biological fluids, samples were mixed with a defined concentration of ¹²⁵I-hepcidin and then added to HBD conjugated beads. […] The fluid was removed and the radioactivity bound to beads was determined by gamma counting (Perkin/Elmer).

[2] = biological target: T1, HBD wt peptide (hepcidin binding domain …); assay: binding to HBD, data not shown

B1: hepcidin (hepcidin 25, native non-radioactive hepcidin) (peptide, UniProt P81172 60-84, looked up)
peptide: DTHFPICIFCCGCCHRSKCGMCCKT
modifications: ends and bridges not checked; also: native intramolecular disulfides, pairing not given here
notes: mature; Synthetic peptide; also called Hep 25; Hep25
apparent K [1]: ~200 nM

B2: Hep20 (hepcidin 20, hepcidin lacking the five amino terminal amino acids) (peptide)
peptide: ICIFCCGCCHRSKCGMCCKT
modifications: ends and bridges not checked; also: native intramolecular disulfides, pairing not given here
binding result [2]: no binding
